In general, Ki refers to the dissociation constant of the complex between target and ligand, obtained from inhibition or displacement.

Data set [1] deals with homoserine transsuccinylase. Nature of the data set: Homoserine transsuccinylase activity test (Lee et al.), 5,5'-dithiobis(2-nitrobenzoic acid), absorption at 412 nm, with and without SAM. It is filed as biochemical, E. coli. To be noted: for Activity (U/mg): cell extract, 3 mM homoserine, 0.3 mM succinyl-CoA, 50 mM potassium phosphate buffer pH 7.5; for Ki: SAM (Cl salt, Sigma) as inhibitor; for Activity (%) in the presence of 1 mM SAM: activity in the absence of SAM corresponds to 100%. The procedure:
In order to determine the sensitivity of the activity of the different homoserine transsuccinylases to SAM, it is possible, for example, to carry out an activity test as described in Lee L. W. et al., J. Biol. Chem. 241, 5479-5480 (1966). In this method, the enzyme extract is incubated with homoserine and succinyl-CoA. After various times, a part of the test assay sample is stopped by adding it to a mixture of ethanol, water, and 5,5′-dithiobis(2-nitrobenzoic acid). The absorption is determined photometrically at 412 nm. The described test is suitable, for example, for determining the sensitivity of the homoserine transsuccinylases to SAM.
The influence of SAM on the activities of the different homoserine transsuccinylases was determined by quantifying the activity in the presence of different concentrations of SAM (Cl salt, Sigma). The cell extracts were grown and prepared as described in Example 3. The activity test was carried out as described in Lee L. W. et al., J. Biol. Chem. 241, 5479-5480 (1966), with the enzyme extract being incubated with 50 mM potassium phosphate buffer, pH 7.5, 3 mM homoserine and 0.3 mM succinyl-CoA. After various times, 100 μl volumes of test mixture were stopped by adding them in each case to a mixture of 400 μl of ethanol, 400 μl of water and 100 μl of 10 mM 5,5′-dithiobis(2-nitrobenzoic acid). After the resulting mixture had been incubated at room temperature for 5 minutes, the absorption was determined photometrically at 412 nm. After the protein concentration had been determined, the enzyme activity was calculated using the extinction coefficient. The Ki was determined as a measure of the ability of SAM to inhibit the activity.

The test system of data set [2] is homoserine transsuccinylase. The data set can be described thus: Homoserine transsuccinylase enzyme test using cell extracts, decrease in extinction at 232 nm, with and without L-methionine. It is filed as biochemical, E. coli. The conditions noted are these: for Activity (U/mg): cell extract of E. coli W3110 transformants, 1 mM homoserine, 0.1 mM succinyl-CoA, 50 mM Tris/Cl pH 7.6; for Activity (%) in the presence of 1 mM L-methionine: activity in the absence of L-methionine corresponds to 100%; for Ki: concentration of L-methionine at which activity is only 50% of activity in its absence. The source says: Any method which enables the activity of the enzyme to be determined in the presence of L-methionine or SAM can be used for determining the sensitivity of the homoserine transsuccinylase to L-methionine and/or SAM. For example, the homoserine transsuccinylase activity can be determined by following the method described by Kredich and Tomkins for determining the activity of serine acetyltransferases (Kredich N. M. and Tomkins G. M., J. Biol. Chem. 241, 4955-4965 (1966)). The enzyme activity is measured in an assay sample which contains homoserine and succinyl-CoA. The reaction is started by adding enzyme and monitored in a spectrophotometer by way of the decrease in the extinction at 232 nm which results from cleavage of the thioester bond in the succinyl-coenzyme A. The described test is suitable for determining the sensitivity of the homoserine transsuccinylases to methionine. The inhibition of homoserine transsuccinylase activity is tested in the presence of different concentrations of L-methionine in the reaction mixture.
The activity, and the influence of L-methionine on the activity, of the different homoserine transsuccinylases were determined by means of an enzyme test using cell extracts in which the respective proteins had been produced. For this, the corresponding plasmids, encoding altered homoserine transsuccinylases, were introduced, by transformation, into the E. coli strain W3110 (ATCC 27325) using methods known to the skilled person. The transformation mixture was spread on LB-tetracycline agar plates (10 g of tryptone/l, 5 g of yeast extract/l, 5 g of NaCl/l, 15 g of agar/l and 15 mg of tetracycline/l) and incubated at 37° C. overnight. The resulting transformants were grown in SM1 medium (for 1 l of medium: CaCl2×2H2O, 0.0147 g, MgSO4×7H2O, 0.3 g, Na2MoO4×2H2O, 0.15 mg, H3BO3, 2.5 mg, CoCl2×6H2O, 0.7 mg, CuSO4×5H2O, 0.25 mg, MnCl2×4H2O, 1.6 mg, ZnSO4×7H2O, 0.3 mg, KH2PO4, 3.0 g, K2HPO4, 12.0 g, (NH4)2SO4, 5 g, NaCl, 0.6 g, FeSO4×7H2O, 0.002 g, Na3-citrate×2H2O, 1 g, glucose, 5 g, tryptone, 1 g, yeast extract, 0.5 g), centrifuged down at an absorption of approx. 0.8 at 600 nm, washed in 50 mM Tris pH 7.5, and centrifuged down once again. The cells were resuspended in 50 mM Tris/Cl, pH 7.5, 2 mM dithiothreitol, 0.5 mM phenylmethylsulfonyl fluoride and disrupted in a French press. The supernatant from a further centrifugation was used as the enzyme extract in the test. The enzyme activity was determined, in a mixture containing 50 mM Tris/Cl, pH 7.6, 1 mM homoserine and 0.1 mM succinyl-CoA, by photometrically quantifying, by means of the decrease in the extinction at 232 nm, the coenzyme A formed in the reaction, following the method described by Kredich and Tomkins for determining the activity of serine acetyltransferases (Kredich N. M. and Tomkins G. M., J. Biol. Chem. 241, 4955-4965 (1966)). The effect of added L-methionine on the activity was determined and the inhibitability was quantified as a Ki value. The Ki which is determined is the concentration of L-methionine at which the activity of the homoserine transsuccinylase is only 50% of its activity in the absence of L-methionine.

B1: pSLmetAN: MetA variant with Asn instead of Asp at position 101 (protein, UniProt P07623 2-309, looked up, variant D101N)
Homoserine …: PIRVPDELPAVNFLREENVFVMTTSRASGQEIRPLKVLILNLMPKKIETENQFLRLLSNSPLQVDIQLLRIDSRESRNTPAEHLNNFYCNFEDIQDQNFNGLIVTGAPLGLVEFNDVAYWPQIKQVLEWSKDHVTSTLFVCWAVQAALNILYGIPKQTRTEKLSGVYEHHILHPHALLTRGFDDSFLAPHSRYADFPAALIRDYTDLEILAETEEGDAYLFASKDKRIAFVTGHPEYDAQTLAQEFFRDVEAGLDPDVPYNYFPHNDPQNTPRASWRSHGNLLFTNWLNYYVYQITPYDLRHMNPTLD
In the case of B1, the “Activity (U/mg)” value amounted to 0.30 U/mg in data set [1] and 0.050 U/mg in data set [2].

B2: pSLmetAS: MetA variant with Ser instead of Asp at position 101 (protein, UniProt P07623 2-309, looked up, variant D101S)
Homoserine …: PIRVPDELPAVNFLREENVFVMTTSRASGQEIRPLKVLILNLMPKKIETENQFLRLLSNSPLQVDIQLLRIDSRESRNTPAEHLNNFYCNFEDIQDQNFSGLIVTGAPLGLVEFNDVAYWPQIKQVLEWSKDHVTSTLFVCWAVQAALNILYGIPKQTRTEKLSGVYEHHILHPHALLTRGFDDSFLAPHSRYADFPAALIRDYTDLEILAETEEGDAYLFASKDKRIAFVTGHPEYDAQTLAQEFFRDVEAGLDPDVPYNYFPHNDPQNTPRASWRSHGNLLFTNWLNYYVYQITPYDLRHMNPTLD
Regarding B2, in data set [1], the Ki came to 10 mM and the “Activity (U/mg)” value was determined as 0.15 U/mg. Also, in data set [2], the “Activity (%) in the presence of 1 mM L-methionine” value came to 89%, the “Activity (U/mg)” value amounted to 0.027 U/mg and affinity was put at a Ki of 7.5 mM.

B3: pSLmetAH: MetA variant with His instead of Asp at position 101 (protein, UniProt P07623 2-309, looked up, variant D101H)
Homoserine …: PIRVPDELPAVNFLREENVFVMTTSRASGQEIRPLKVLILNLMPKKIETENQFLRLLSNSPLQVDIQLLRIDSRESRNTPAEHLNNFYCNFEDIQDQNFHGLIVTGAPLGLVEFNDVAYWPQIKQVLEWSKDHVTSTLFVCWAVQAALNILYGIPKQTRTEKLSGVYEHHILHPHALLTRGFDDSFLAPHSRYADFPAALIRDYTDLEILAETEEGDAYLFASKDKRIAFVTGHPEYDAQTLAQEFFRDVEAGLDPDVPYNYFPHNDPQNTPRASWRSHGNLLFTNWLNYYVYQITPYDLRHMNPTLD
B3: in data set [1], the “Activity (%) in the presence of 1 mM SAM” value is reported as 93%, the Ki was 16 mM and the “Activity (U/mg)” value is on record as 0.27 U/mg. Further, in data set [2], the “Activity (%) in the presence of 1 mM L-methionine” value was found to be 90%, the “Activity (U/mg)” value is on record as 0.045 U/mg and the Ki was determined as 12 mM.

B4: pSLmetAC: MetA variant with Cys instead of Asp at position 101 (protein, UniProt P07623 2-309, looked up, variant D101C)
Homoserine …: PIRVPDELPAVNFLREENVFVMTTSRASGQEIRPLKVLILNLMPKKIETENQFLRLLSNSPLQVDIQLLRIDSRESRNTPAEHLNNFYCNFEDIQDQNFCGLIVTGAPLGLVEFNDVAYWPQIKQVLEWSKDHVTSTLFVCWAVQAALNILYGIPKQTRTEKLSGVYEHHILHPHALLTRGFDDSFLAPHSRYADFPAALIRDYTDLEILAETEEGDAYLFASKDKRIAFVTGHPEYDAQTLAQEFFRDVEAGLDPDVPYNYFPHNDPQNTPRASWRSHGNLLFTNWLNYYVYQITPYDLRHMNPTLD
Turning to B4, in data set [1], the “Activity (%) in the presence of 1 mM SAM” value is 91%, the Ki was 7 mM and the “Activity (U/mg)” value is given as 0.51 U/mg. In data set [2], the “Activity (%) in the presence of 1 mM L-methionine” value is 92%; the “Activity (U/mg)” value was 0.084 U/mg; the affinity, expressed as Ki, was 5 mM.

B5: pSLmetAY: MetA variant with Tyr instead of Asp at position 101 (protein, UniProt P07623 2-309, looked up, variant D101Y)
Homoserine …: PIRVPDELPAVNFLREENVFVMTTSRASGQEIRPLKVLILNLMPKKIETENQFLRLLSNSPLQVDIQLLRIDSRESRNTPAEHLNNFYCNFEDIQDQNFYGLIVTGAPLGLVEFNDVAYWPQIKQVLEWSKDHVTSTLFVCWAVQAALNILYGIPKQTRTEKLSGVYEHHILHPHALLTRGFDDSFLAPHSRYADFPAALIRDYTDLEILAETEEGDAYLFASKDKRIAFVTGHPEYDAQTLAQEFFRDVEAGLDPDVPYNYFPHNDPQNTPRASWRSHGNLLFTNWLNYYVYQITPYDLRHMNPTLD
For B5, in data set [1], the “Activity (%) in the presence of 1 mM SAM” value is 95%, the Ki stood at 14 mM and the “Activity (U/mg)” value stood at 0.61 U/mg. In data set [2], the “Activity (%) in the presence of 1 mM L-methionine” value is given as 93%, the “Activity (U/mg)” value is 0.094 U/mg and the inhibition constant Ki is 10 mM.

B6: pSLmetAA: MetA variant with Ala instead of Asp at position 101 (protein, UniProt P07623 2-309, looked up, variant D101A)
Homoserine …: PIRVPDELPAVNFLREENVFVMTTSRASGQEIRPLKVLILNLMPKKIETENQFLRLLSNSPLQVDIQLLRIDSRESRNTPAEHLNNFYCNFEDIQDQNFAGLIVTGAPLGLVEFNDVAYWPQIKQVLEWSKDHVTSTLFVCWAVQAALNILYGIPKQTRTEKLSGVYEHHILHPHALLTRGFDDSFLAPHSRYADFPAALIRDYTDLEILAETEEGDAYLFASKDKRIAFVTGHPEYDAQTLAQEFFRDVEAGLDPDVPYNYFPHNDPQNTPRASWRSHGNLLFTNWLNYYVYQITPYDLRHMNPTLD
Regarding B6, in data set [1], the “Activity (%) in the presence of 1 mM SAM” value is recorded as 90%, the Ki was determined as 8 mM and the “Activity (U/mg)” value is on record as 0.20 U/mg. In data set [2], the “Activity (%) in the presence of 1 mM L-methionine” value was found to be 96%, the “Activity (U/mg)” value is reported as 0.031 U/mg and the Ki was 6 mM.

B7: pSLmetAI: MetA variant with Ile instead of Asp at position 101 (protein, UniProt P07623 2-309, looked up, variant D101I)
Homoserine …: PIRVPDELPAVNFLREENVFVMTTSRASGQEIRPLKVLILNLMPKKIETENQFLRLLSNSPLQVDIQLLRIDSRESRNTPAEHLNNFYCNFEDIQDQNFIGLIVTGAPLGLVEFNDVAYWPQIKQVLEWSKDHVTSTLFVCWAVQAALNILYGIPKQTRTEKLSGVYEHHILHPHALLTRGFDDSFLAPHSRYADFPAALIRDYTDLEILAETEEGDAYLFASKDKRIAFVTGHPEYDAQTLAQEFFRDVEAGLDPDVPYNYFPHNDPQNTPRASWRSHGNLLFTNWLNYYVYQITPYDLRHMNPTLD
In the case of B7, in data set [1], the “Activity (%) in the presence of 1 mM SAM” value came out at 93%, the Ki is 12 mM and the “Activity (U/mg)” value came out at 0.68 U/mg. Moreover, in data set [2], the “Activity (%) in the presence of 1 mM L-methionine” value is listed as 95%; the “Activity (U/mg)” value came out at 0.107 U/mg; the affinity, expressed as Ki, was 9.5 mM.

Source of the values: US7371551B1, “Feedback-resistant homoserine transsuccinylases” (priority 2002, dated 2008).
